Reference: patent publication US7807783 (REGENTS OF THE UNIVERSITY OF MICHIGAN, dated 2010)
Positions count from the first letter of the chain named.

T1: GST-Fas (GST fusion protein containing the cytoplasmic domain of Fas) (UniProt P25445 191-335)
T1 construct: domain: cytoplasmic domain; Made in E. coli BL21(DE3)pLysS and immobilized on glutathione beads; not shown: glutathione S-transferase of vector pGSTag
T1 sequence (looked up): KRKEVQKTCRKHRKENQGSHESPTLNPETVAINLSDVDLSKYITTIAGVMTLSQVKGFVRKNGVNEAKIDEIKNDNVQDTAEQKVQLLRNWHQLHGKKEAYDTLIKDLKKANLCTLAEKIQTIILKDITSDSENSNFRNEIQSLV

T2: cytoplasmic domain of Fas (UniProt P25445 191-335, limits assumed)
T2 construct: domain: cytoplasmic domain
T2 sequence (looked up): T1 sequence (looked up)

B1: AU1-epitope tagged FADD (AU1-FADD) (other)
chain: DTYRYIMDPFLVLLHSVSSSLSSSELTELKFLCLGRVGKRKLERVQSGLDLFSMLLEQNDLEPGHTELLRELLASLRRHDLLRRVDDFEAGAAAGAAPGEEDLCAAFNVICDNVGKDWRRLARQLKVSDTKIDSIEDRYPRNLTERVRESLRIWKNTEKENATVAHLVGALRSCQMNLVADLVQEVQQARDLQNRSGAMSPMSWNSDASTSEAS
modifications: 35S-methionine/cysteine metabolic label
notes: the tag is placed N-terminal by the name only
B2: AU1-FADDmt (other)
chain: B1 chain with V127N
modifications: 35S-methionine/cysteine metabolic label
notes: also called point mutant of FADD
B3: clone 15 (GAL4 activation domain fusion isolated in the yeast two-hybrid screen) (other, not shown: large carriers)
chain: KFLCLGRVGKRKLERVQSGLDLFSMLLEQNDLEPGHTELLRELLASLRRHDLLRRVDDFEAGAAAGAAPGEEDLCAAFNVICDNVGKDWRRLARQLKVSDTKIDSIEDRYPRNLTERVRESLRIWKNTEKENATVAHLVGALRSCQMNLVADLVQEVQQARDLQNRSGAMSPMSWNSDASTSEAS
notes: also called GAL4ad-FADD (clone 15)
B4: clone 8 (GAL4 activation domain fusion isolated in the yeast two-hybrid screen) (other, not shown: large carriers)
chain: SGLDLFSMLLEQNDLEPGHTELLRELLASLRRHDLLRRVDDFEAGAAAGAAPGEEDLCAAFNVICDNVGKDWRRLARQLKVSDTKIDSIEDRYPRNLTERVRESLRIWKNTEKENATVAHLVGALRSCQMNLVADLVQEVQQARDLQNRSGAMSPMSWNSDASTSEAS
B5: GAL4 activation domain-FADD fusion protein (GAL4ad-FADD) (other, not shown: large carriers)
chain: MDPFLVLLHSVSSSLSSSELTELKFLCLGRVGKRKLERVQSGLDLFSMLLEQNDLEPGHTELLRELLASLRRHDLLRRVDDFEAGAAAGAAPGEEDLCAAFNVICDNVGKDWRRLARQLKVSDTKIDSIEDRYPRNLTERVRESLRIWKNTEKENATVAHLVGALRSCQMNLVADLVQEVQQARDLQNRSGAMSPMSWNSDASTSEAS
B6: N-FADD (other)
chain: DTYRYIMDPFLVLLHSVSSSLSSSELTELKFLCLGRVGKRKLERVQSGLDLFSMLLEQNDLEPGHTELLRELLASLRRHDLLRRVDDFEAGAAAGAAPGEEDLCAAFNVICDNVGKDWRRLAR
notes: the AU1-tagged form is the one made for the cell death assays; also called AU1-N-FADD
B7: HA-epitope tagged FADD (HA-FADD) (other)
chain: YPYDVPDYAMDPFLVLLHSVSSSLSSSELTELKFLCLGRVGKRKLERVQSGLDLFSMLLEQNDLEPGHTELLRELLASLRRHDLLRRVDDFEAGAAAGAAPGEEDLCAAFNVICDNVGKDWRRLARQLKVSDTKIDSIEDRYPRNLTERVRESLRIWKNTEKENATVAHLVGALRSCQMNLVADLVQEVQQARDLQNRSGAMSPMSWNSDASTSEAS
modifications: 35S-methionine/cysteine metabolic or in vitro translation label
notes: also called in vitro translated FADD; 35S-labeled FADD
B8: GAL4 DNA binding domain fusion of the cytoplasmic domain of CD28 (receptor, UniProt P04386 1-147, looked up)
chain: MKLLSSIEQACDICRLKKLKCSKEKPKCAKCLKNNWECRYSPKTKRSPLTRAHLTEVESRLERLEQLFLLIFPREDLDMILKMDSLQDIKALLTGLFVQDNVNKDAVTDRLASVETDMPLTLRQHRISATSSSEESSNKGQRQLTVSRSKRSRLLHSDYMNMTPRRPGPTRKHYQPYAPPRDFAAYRS
notes: also called CD28 (yeast bait)

What was measured:
[1] = target: T3, GST (UniProt P08515 1-218 = GST); assay: GST pull-down from lysates of transfected 293T cells
T3 construct: Control protein on glutathione beads
T3 sequence (P08515 whole entry): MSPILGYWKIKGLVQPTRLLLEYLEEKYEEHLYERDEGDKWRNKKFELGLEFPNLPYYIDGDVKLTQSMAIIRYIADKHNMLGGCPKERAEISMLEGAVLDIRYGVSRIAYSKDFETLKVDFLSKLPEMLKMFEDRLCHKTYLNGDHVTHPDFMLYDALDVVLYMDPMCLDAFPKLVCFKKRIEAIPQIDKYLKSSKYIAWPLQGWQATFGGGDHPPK
Procedure: (§1) Detergent lysates were prepared and incubated with various GST fusion proteins immobilized on glutathione-Sepharose beads. The samples were analyzed by SDS-PAGE and autoradiography (upper panel). The respective GST fusion proteins are shown as in FIG. 4B (middle panel).

[2] = target: T1, GST-Fas (GST fusion protein containing …); assay: as above
Procedure: as §1

[3] = target: T4, GAL4 DNA binding domain fusion of the cytoplasmic domain of CD40 (UniProt P04386 1-147; P25942 216-277, limits assumed); assay: yeast two-hybrid
T4 construct: also called CD40 (yeast bait)
Source text: (§2) The following yeast two-hybrid system was used and constructed as follows. The cytoplasmic domains of Fas, Fas-FD8, TNRF-1, Δ-TNFR-1, CD40, and CD28 were obtained by PCR and cloned in-frame, as confirmed by sequencing, into the GAL4 DNA binding domain (GAL4bd) vector pAS1CYH2. Full-length A20 and B94 were similarly cloned into the bait vector. GAL4bd-Fas was cotransformed with a prey plasmid containing a human B-cell cDNA expression library fused to the GAL4 activation domain (GAL4ad) in the pACT plasmid. A more detailed account of the plasmids used in the procedure for the yeast two-hybrid system can be found in Hu et al. (1994) *J. Biol. Chem.* 269:30069-30072.
(§3) The yeast two-hybrid system was used to screen for proteins that interact with the cytoplasmic domain of Fas. An expression vector was constructed by fusing the GAL4 DNA-binding domain to the cytoplasmic tail of the human Fas antigen (GAL4bd-Fas). This bait plasmid was cotransformed in yeast with a prey plasmid containing a human B-cell cDNA expression library fused to the GAL4-activation domain. Seventeen positive clones were obtained from 2 ×10^6 transformants screened. To determine the specificity of interaction, plasmids containing the activation domain fusion proteins were recovered from the putative positive clones and cotransformed with GAL4bd-Fas and control heterologous baits.

[4] = target: T5, GAL4 DNA binding domain fusion of full-length B94 (UniProt P04386 1-147; Q03169 1-654); assay: yeast two-hybrid
T5 construct: also called B94 (yeast bait)
Source text: as §2, §3

[5] = target: B8; assay: yeast two-hybrid
Source text: as §2, §3

[6] = target: T6, GAL4 DNA binding domain fusion of full-length A20 (UniProt P04386 1-147; P21580 1-790); assay: yeast two-hybrid
T6 construct: also called A20 (yeast bait)
Source text: as §2, §3

[7] = target: GAL4 DNA-binding domain fused to the cytoplasmic tail of the human Fas antigen (GAL4bd-Fas) (human, UniProt P04386 1-147; P25445 191-335, limits assumed); assay: yeast two-hybrid
Source text: as §2, §3

[8] = target: T4, GAL4 DNA binding domain fusion of the …; assay: yeast two-hybrid, β-galactosidase filter assay
Source text: as §2, §3

[9] = target: T5, GAL4 DNA binding domain fusion of …; assay: yeast two-hybrid, β-galactosidase filter assay
Source text: as §2, §3

[10] = target: T6, GAL4 DNA binding domain fusion of …; assay: yeast two-hybrid, β-galactosidase filter assay
Source text: as §2, §3

[11] = target: T2, cytoplasmic domain of Fas; assay: not described
[12] = target: T3, GST; assay: GST pull-down of 35S-labeled in vitro translated FADD, SDS-PAGE and autoradiography
[13] = target: B5; assay: yeast two-hybrid, β-galactosidase filter assay
Source text: as §2, §3

B1
binding result [1]: no binding

B2
binding result [2]: no binding | binding result [1]: no binding

B3
binding result [3]: no binding | binding result [4]: no binding | binding result [5]: no binding | binding result [6]: no binding

B4
binding result [3]: no binding | binding result [4]: no binding | binding result [7]: binds | binding result [5]: no binding | binding result [6]: no binding

B5
binding result [8]: no binding | binding result [9]: no binding | binding result [10]: no binding

B6
binding result [11]: no binding

B7
binding result [12]: no binding

B8
binding result [13]: no binding
